Assay results: patent publication US20260055369A1, “METHOD FOR GENERATING CELLS OF THE T CELL LINEAGE WITH ENGINEERING BROADLY REACTIVE HUMAN NOTCH LIGAND” (H. Lee Moffitt Cancer Center and Research Institute, Inc., priority 2022, published 2026)

Tests used:
CD8+ T cells = test: Quantitative real-time PCR of activation markers in CD8+ T cells; assay type: cell-based, human; settings: K32 loaded with 0.0125 μg/mL OKT3, over four days
Experimental: Human CD8^+ T cells were co-cultured with K32-DLL4 cells for 96 hours and positively enriched by MACS column (Invitrogen Kit). Total RNA was isolated from CD8^+ T cells using TRIzol (Life Technologies). Reverse transcription reaction was performed using Verso cDNA Synthesis Kit (Thermo Scientific). Quantitative PCR reactions were prepared by using Bio-Rad SYBR green master mix and performed on an Applied Biosystems thermocycler (7900 HT). Relative expression was calculated using the ΔΔCt method and normalized to B2M levels. The data represent the mean quantity of mRNA (in-fold) for different T cell markers±s.e.m. of four independent biological replicates. Pair primers used were: […]

endogenous Notch1 = molecular target: T1, endogenous Notch1 (Homo sapiens, UniProt P46531); test: Western blot for cleaved Notch1 ICD in U2OS and MCF-7 cells; assay type: cell-based; settings: 50 nM C-terminally anchored, 24 hours
T1 construct: cells expressing endogenous levels of Notch1; endogenous in cells; host or cells: U2OS; MCF-7
T1 sequence (P46531 19-2555): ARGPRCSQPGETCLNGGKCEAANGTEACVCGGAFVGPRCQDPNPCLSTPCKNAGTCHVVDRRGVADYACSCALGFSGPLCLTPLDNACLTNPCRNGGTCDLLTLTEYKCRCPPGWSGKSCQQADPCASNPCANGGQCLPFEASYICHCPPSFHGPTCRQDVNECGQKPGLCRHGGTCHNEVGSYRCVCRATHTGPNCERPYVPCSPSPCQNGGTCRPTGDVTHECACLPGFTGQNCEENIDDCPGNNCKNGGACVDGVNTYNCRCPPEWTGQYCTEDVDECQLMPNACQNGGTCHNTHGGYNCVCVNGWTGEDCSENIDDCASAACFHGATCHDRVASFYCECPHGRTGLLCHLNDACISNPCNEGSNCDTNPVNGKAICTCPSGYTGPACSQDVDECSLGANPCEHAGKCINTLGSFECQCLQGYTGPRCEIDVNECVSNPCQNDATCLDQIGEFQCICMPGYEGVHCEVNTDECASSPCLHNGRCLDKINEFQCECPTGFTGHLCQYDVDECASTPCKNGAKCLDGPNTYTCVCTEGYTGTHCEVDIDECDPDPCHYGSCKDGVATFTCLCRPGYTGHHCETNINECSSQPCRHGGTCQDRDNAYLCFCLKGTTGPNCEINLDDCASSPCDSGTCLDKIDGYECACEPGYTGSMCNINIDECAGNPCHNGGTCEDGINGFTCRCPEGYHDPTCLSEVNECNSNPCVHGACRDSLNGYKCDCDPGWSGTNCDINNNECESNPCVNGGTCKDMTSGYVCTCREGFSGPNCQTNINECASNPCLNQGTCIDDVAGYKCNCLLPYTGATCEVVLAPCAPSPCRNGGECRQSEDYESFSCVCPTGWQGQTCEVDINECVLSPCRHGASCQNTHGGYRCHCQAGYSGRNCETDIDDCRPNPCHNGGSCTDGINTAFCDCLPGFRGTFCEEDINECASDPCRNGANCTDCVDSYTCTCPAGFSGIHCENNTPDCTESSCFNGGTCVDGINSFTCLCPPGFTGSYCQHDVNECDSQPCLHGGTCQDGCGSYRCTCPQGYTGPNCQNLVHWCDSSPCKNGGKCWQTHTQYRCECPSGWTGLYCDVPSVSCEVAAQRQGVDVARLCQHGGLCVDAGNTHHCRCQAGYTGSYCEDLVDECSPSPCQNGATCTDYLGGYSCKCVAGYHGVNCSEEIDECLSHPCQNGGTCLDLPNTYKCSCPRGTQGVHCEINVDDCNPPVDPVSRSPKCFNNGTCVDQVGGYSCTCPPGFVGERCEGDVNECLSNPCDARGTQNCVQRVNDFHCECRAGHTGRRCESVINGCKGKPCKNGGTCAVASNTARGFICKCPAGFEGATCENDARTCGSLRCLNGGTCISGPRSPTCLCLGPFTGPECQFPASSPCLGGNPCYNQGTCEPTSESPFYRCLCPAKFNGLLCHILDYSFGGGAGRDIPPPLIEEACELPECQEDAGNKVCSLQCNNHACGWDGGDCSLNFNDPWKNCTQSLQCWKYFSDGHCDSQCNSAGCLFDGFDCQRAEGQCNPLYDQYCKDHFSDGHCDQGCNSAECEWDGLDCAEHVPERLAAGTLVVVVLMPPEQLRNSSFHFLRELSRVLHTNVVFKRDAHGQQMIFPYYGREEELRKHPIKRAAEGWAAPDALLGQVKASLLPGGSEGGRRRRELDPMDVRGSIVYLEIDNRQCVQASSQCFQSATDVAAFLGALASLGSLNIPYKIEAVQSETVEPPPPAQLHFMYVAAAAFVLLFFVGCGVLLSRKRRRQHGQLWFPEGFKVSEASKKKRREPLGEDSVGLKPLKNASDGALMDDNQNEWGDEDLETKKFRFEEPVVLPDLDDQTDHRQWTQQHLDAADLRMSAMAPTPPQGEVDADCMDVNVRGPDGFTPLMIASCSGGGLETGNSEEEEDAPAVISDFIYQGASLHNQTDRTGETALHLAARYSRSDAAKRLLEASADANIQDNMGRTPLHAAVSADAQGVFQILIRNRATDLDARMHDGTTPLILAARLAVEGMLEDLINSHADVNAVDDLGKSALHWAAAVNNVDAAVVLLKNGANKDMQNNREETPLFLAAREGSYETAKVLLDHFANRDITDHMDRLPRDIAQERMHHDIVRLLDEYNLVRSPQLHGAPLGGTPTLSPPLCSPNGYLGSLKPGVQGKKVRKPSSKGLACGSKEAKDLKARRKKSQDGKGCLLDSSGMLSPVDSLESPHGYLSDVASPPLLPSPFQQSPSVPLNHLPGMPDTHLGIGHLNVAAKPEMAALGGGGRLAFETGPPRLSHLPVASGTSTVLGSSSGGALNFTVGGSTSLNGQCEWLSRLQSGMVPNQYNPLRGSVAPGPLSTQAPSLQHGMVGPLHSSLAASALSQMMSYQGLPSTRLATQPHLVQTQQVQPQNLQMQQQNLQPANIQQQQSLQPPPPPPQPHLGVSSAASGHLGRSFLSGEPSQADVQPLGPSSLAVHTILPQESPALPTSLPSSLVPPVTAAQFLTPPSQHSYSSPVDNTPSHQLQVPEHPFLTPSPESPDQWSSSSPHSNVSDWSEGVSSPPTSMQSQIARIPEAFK
Experimental: For Notch activation in U2OS and MCF-7 cells, WT DLL4 and Delta^MAX biotinylated ligands were immobilized at 50 nM in 6-well streptavidin-coated plates following a scaled-up protocol of the one described before. After 24 hours of stimulation, cells were lysed in Laemmli […] buffer (40% glycerol, 4% SDS, 250 mM Tris-HCl, 0.02% bromophenol blue, and 20% β-mercaptoethanol). Cell lysates were heated at 100° C. for 5 min, centrifuged at 21,000×g for 10 min at 4° C., and supernatants stored at −20° C. Proteins were separated by SDS-PAGE (12% Mini-PROTEAN TGX Precast Protein Gels, Bio-Rad) and transferred to PVDF membranes using an iBlot2 Gel Transfer Device (Thermo Fisher Scientific). The membranes were blocked in 3% BSA+0.1% TBS-Tween. Primary antibodies were anti-cleaved Notch1 (Val1744 rabbit mAb, Cell Signaling Technology, 1:1,000), and β-Actin (rabbit pAb, Cell Signaling Technology, 1:1,000). Secondary antibody anti-Rabbit IgG conjugated to HRP (Goat mAb, Vector Laboratories, 1:8,000) was used for detection of proteins using SuperSignal West Pico PLUS Chemiluminescent Substrate (Thermo Fisher Scientific). Images were acquired using an Amersham Imager 600 (GE Healthcare), and contrast adjusted with a curves layer.

Notch1 [1] = molecular target: T2, Notch1 (Homo sapiens, UniProt P46531); test: Immunoblot of cleaved Notch1 in CD8+ T cells; assay type: cell-based; settings: CD8+ T cells after 96 hours with K32 cells
Chain of Notch1 (P46531 19-1664 limits assumed): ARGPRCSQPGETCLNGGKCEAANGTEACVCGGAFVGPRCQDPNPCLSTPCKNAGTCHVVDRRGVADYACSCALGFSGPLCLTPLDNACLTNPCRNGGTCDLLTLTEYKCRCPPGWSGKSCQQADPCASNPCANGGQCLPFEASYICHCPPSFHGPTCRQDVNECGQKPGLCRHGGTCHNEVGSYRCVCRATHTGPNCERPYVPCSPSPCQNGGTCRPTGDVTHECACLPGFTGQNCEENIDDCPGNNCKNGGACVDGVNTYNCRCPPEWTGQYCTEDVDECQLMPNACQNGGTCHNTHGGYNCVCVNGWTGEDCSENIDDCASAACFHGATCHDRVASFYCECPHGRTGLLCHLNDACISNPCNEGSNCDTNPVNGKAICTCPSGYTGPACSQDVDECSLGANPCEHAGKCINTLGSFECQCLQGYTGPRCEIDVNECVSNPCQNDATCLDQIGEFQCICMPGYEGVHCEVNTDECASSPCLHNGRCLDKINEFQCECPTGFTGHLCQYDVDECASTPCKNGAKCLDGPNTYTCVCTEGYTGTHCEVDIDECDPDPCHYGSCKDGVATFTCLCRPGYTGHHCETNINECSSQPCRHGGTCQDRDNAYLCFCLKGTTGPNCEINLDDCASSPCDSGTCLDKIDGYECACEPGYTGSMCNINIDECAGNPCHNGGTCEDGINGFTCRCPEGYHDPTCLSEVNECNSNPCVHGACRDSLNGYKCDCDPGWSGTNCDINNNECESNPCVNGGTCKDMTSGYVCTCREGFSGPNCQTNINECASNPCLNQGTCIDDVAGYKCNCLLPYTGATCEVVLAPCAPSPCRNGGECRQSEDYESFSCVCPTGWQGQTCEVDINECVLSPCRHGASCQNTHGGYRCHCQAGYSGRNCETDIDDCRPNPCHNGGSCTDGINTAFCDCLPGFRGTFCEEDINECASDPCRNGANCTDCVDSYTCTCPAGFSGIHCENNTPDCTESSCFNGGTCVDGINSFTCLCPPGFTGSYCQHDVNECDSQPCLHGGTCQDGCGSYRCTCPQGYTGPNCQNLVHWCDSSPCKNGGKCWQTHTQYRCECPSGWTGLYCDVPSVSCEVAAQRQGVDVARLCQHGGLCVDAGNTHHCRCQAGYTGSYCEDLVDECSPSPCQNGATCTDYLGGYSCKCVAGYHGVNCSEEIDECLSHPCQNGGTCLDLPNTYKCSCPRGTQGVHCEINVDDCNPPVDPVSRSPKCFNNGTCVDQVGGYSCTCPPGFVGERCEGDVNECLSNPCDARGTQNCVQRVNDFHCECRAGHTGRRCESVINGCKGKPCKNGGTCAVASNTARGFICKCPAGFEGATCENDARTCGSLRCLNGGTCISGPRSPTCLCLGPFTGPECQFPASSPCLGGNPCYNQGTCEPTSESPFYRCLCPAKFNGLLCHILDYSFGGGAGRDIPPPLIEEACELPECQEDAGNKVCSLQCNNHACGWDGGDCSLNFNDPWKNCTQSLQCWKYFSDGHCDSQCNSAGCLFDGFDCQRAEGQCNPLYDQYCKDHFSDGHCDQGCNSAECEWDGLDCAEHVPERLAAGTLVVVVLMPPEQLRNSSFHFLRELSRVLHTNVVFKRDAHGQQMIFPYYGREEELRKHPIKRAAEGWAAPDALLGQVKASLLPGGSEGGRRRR
Chain of Notch1 (P46531 1665-1756 limits assumed): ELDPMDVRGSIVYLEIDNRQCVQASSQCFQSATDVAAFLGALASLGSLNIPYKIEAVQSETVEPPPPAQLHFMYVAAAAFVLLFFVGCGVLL
T2 construct: endogenous in cells; host or cells: primary human CD8+ T cells from PBMC
T2 sequence (P46531 19-2555): as the sequence (P46531 19-2555) above
Source text: (§1) For detection of Notch activation in CD8^+ T cells, following co-culture with K32 cell lines, CD8^+ T cells were positively enriched by Magnisort Human CD8^+ T cell positive selection Kit (Invitrogen). Nuclear fraction was isolated using NE-PER Nuclear and Cytoplasmic extraction kit (ThermoFisher). Equal protein amounts of nuclear cell lysates were run on 4-20% gradient Tris-glycine gels (Novex-Invitrogen), transferred to PVDF membranes using an iBlot Gel Transfer Device (ThermoFisher), and immunoblotted with antibodies anti-cleaved Notch1 (Val1744 rabbit mAb, Cell Signaling Technology, 1:1,000), anti-Notch2 (D76A6 rabbit mAb, Cell Signaling Technology, 1:1,000), and anti-β Actin (mouse mAb, Sigma, 1:20,000). Secondary antibodies anti-IgG (anti-rabbit or anti-mouse, GE Healthcare, 1:5,000) conjugated to horseradish peroxidase (HRP) were used for detection of proteins using ECL Western Blot Substrate Reagent (Thermo Fisher Scientific). Images were acquired using a Chemidoc Imaging System and analyzed with Image-Lab software (Bio-Rad).

Notch3 = test: U2OS luciferase reporter assay, ligands on streptavidin plates; assay type: cell-based, human; settings: 50 nM immobilized
Chain of Notch3 (Q9UM47 197-505 limits assumed): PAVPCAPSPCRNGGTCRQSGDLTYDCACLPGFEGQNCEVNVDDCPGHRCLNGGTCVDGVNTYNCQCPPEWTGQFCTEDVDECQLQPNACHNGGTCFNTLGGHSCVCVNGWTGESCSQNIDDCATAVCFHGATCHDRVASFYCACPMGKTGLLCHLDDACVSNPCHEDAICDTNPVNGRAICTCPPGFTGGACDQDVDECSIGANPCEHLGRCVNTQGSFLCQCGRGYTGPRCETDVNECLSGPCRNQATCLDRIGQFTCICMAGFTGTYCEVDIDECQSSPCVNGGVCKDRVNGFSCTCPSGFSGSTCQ
Experimental: (§2) For U2OS reporter cells, approximately 5×10E5 cells were plated into 6-well plates (Falcon) and let to adhere overnight at 37° C., 5% CO2 in DMEM media (Cytiva). On day two, media was replaced with serum-free DMEM and cells transfected with luciferase vectors. Cationic lipoplexes were generated for 15 min at room temperature by mixing 10 μL of Lipofectamine 2000 (Invitrogen), 2.5 μg of Gal4-firefly luciferase reporter, and 50 ng of pRL-TK Renilla luciferase vector as internal control (ratio 1:5, Lipo:DNA). On day three, streptavidin plates were coupled with DLL4 ligands like described above using 10-fold serial dilutions starting at 50 nM, and transfected U2OS cells were detached with Trypsin-EDTA, washed with DPBS, and counted in the microscope. Twenty-thousand reporter cells were added to wells using 200 μL of DMEM media containing 2 μg/mL of doxycycline (Sigma) to induce Notch-Gal4 expression. Next, signaling plates were incubated for 24 hours at 37° C. and 5% CO2. On day four, luciferase firefly and Renilla signals were determined with Dual-Glo luciferase assay system (Promega) using a GloMax luminometer (Promega). A luminescence ratio firefly:Renilla was determined for every well and normalized to the signal of a non-related control protein (PA domain of RNF128). Notch activation is represented as the mean fold-change over the control±s.d. of three independent biological replicates.

Notch2 [2] = test: as above; assay type: cell-based, human; settings: 50 nM immobilized
Chain of Notch2 (Q04721 221-530 limits assumed): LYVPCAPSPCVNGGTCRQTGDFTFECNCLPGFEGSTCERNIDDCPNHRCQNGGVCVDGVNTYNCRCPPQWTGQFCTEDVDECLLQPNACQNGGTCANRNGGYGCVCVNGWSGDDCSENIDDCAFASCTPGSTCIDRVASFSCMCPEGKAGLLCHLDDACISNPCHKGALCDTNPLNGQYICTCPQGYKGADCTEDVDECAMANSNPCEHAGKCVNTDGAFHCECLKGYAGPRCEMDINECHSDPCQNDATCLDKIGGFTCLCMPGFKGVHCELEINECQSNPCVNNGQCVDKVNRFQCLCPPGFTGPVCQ
Experimental: as §2

Notch1 [3] = test: as above; assay type: cell-based, human; settings: 50 nM immobilized
Experimental: as §2

[4] = system: full-length, cell surface-expressed Notch1; test: Tetramer binding to Notch1 overexpressing CHO-K1 N1-Gal4 cells by flow cytometry; settings: tetramers
Chain of full-length, cell surface-expressed Notch1 (P46531 19-1664 limits assumed): as the sequence (P46531 19-1664 limits assumed) above
Chain of full-length, cell surface-expressed Notch1 (P46531 1665-1756 limits assumed): as the sequence (P46531 1665-1756 limits assumed) above
Source text: Extended Data FIG. 5. Quantitation of mNotch1 binding to DLL4 variants, ligand adsorption, and Notch surface expression. a, SPR binding isotherms were fitted to a 1:1 binding model to determine the binding affinity between mNotch1 (6-13) and each DLL4 variant. b, Determination of plate adsorption for WT DLL4 and Delta^MAX by ELISA. Data represent mean values±s.d. of three biological replicates. c, Binding assay of WT DLL4 and Delta^MAX tetramers to Notch1 overexpressing CHO-K1 N1-Gal4 cells was measured by flow cytometry. Data represent mean values±s.d. of three biological replicates. d, The level of Notch1 expression on the surface of cell lines used in this study was determined by flow cytometry. Data represent mean values±s.d. of three biological replicates. e, Percentage of CD8^+ T cells expressing Notch1 (upper graph) and Notch2 (bottom graph) on cell surface determined by flow cytometry after stimulation with K32-WT DLL4, K32-Delta^MAX, or K32 for 96 hours. Data represent mean values±s.e.m. of three biological replicates. Delta^MAX statistics are referred to WT DLL4. *P<0.05, ****P<0.0001 (Two-way ANOVA).

Notch2 [5] = molecular target: T3, Notch2 (Homo sapiens, UniProt Q04721); test: Immunoblot of cleaved Notch2 in CD8+ T cells; assay type: cell-based; settings: CD8+ T cells after 96 hours with K32 cells
T3 construct: endogenous in cells; host or cells: primary human CD8+ T cells from PBMC
Source text: as §1

B1: Delta^MAX: engineered human DLL4 consensus variant with 10 mutations combining DLL4.v1 and DLL4.v2 mutations; sequence matches SEQ ID NO: 4/10 (protein)
chain: SSVFQLQLQEFINERGVLASGRPCEPGCRTFFRVCLKHFQAVVSPGPCTFGTVSTPVLGTNSFAVRDDSSGGGRNPLQLPLNFTWPGTFSLIIEAWHAPGDDLRPEALPPDALISKFAIQGSLAVGQNWLLDEQTSTLTRLRYSYRVICSDNYYGDNCSRLCKKRNDYFGHYVCQPDGNPSCLPGWTGEYCQQPICLSGCHEQNGYCSKPAECLCRPGWQGRLCNECIPHPGCRHGTCSTPWQCLCDEGWGGLYCDQDLNYCTHHSPCKNGATCRNSGPRSYTCTCRPGYTGVDCELELSECDSNPCRNGGSCKDQEDGYHCLCPPGYYGLHCEHSTLSCADSPCFNGGSCRERNQGANYACECPPNFTGSNCE
Granzyme B mRNA level vs WT DLL4 or mock (CD8+ T cells): increased levels | Hes-4 (Notch target) expression vs WT DLL4 or mock (CD8+ T cells): elevated expression | IFNγ mRNA level vs WT DLL4 or mock (CD8+ T cells): increased levels | Notch1 activation (cleaved Notch1 ICD) vs WT DLL4 (endogenous Notch1; MCF-7 cells): much more potently | Notch1 activation (cleaved Notch1 ICD) vs WT DLL4 (endogenous Notch1; U2OS cells): much more potently | Notch1 activation (cleaved ICD) relative to WT DLL4 (Notch1 [1]): increased | increase in Notch3 signaling vs WT DLL4 (Notch3): 3 fold | increase in Notch2 signaling vs WT DLL4 (Notch2 [2]): 2.5 fold | increase in Notch1 signaling vs WT DLL4 (Notch1 [3]): 2 fold | increase of mean fluorescence intensity (MFI) of binding compared to WT DLL4 [4]: 4.7 fold | Notch2 activation (cleaved ICD) relative to WT DLL4 (Notch2 [5]): increased
